# T1: Drg1 (diazaborine resistance gene 1), wild type, purified (S. cerevisiae, UniProt P32794 1-780)
# T1 construct: Drg1 (AFG2), hexameric type-II AAA-ATPase of S. cerevisiae, wild type; Hexamer in the cryo-EM maps; also called DRG1 (AFG2); AAA-ATPase Drg1; source: overexpressed in yeast as GST fusion (CuSO4-induced), purified on GSH-agarose, eluted by Prescission protease cleavage
# T1 sequence: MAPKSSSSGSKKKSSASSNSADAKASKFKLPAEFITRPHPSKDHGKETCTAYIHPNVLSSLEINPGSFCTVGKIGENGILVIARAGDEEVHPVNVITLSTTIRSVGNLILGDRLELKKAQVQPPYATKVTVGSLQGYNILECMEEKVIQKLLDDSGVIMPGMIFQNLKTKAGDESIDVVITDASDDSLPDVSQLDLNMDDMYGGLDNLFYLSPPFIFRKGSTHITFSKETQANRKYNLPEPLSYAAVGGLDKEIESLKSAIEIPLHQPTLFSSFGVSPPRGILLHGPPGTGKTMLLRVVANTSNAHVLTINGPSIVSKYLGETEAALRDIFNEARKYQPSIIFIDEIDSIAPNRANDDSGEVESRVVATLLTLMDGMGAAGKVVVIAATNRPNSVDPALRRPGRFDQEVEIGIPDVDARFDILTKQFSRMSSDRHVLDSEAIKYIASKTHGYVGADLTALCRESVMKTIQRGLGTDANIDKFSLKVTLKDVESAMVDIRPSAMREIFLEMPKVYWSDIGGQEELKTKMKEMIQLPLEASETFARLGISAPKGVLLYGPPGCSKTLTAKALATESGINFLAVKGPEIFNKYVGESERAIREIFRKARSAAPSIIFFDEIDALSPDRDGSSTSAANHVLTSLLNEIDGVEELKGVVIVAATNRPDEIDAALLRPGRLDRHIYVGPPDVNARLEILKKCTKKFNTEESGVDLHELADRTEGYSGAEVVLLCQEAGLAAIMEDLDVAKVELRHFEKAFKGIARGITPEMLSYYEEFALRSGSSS
# T2: Drg1EQ1 (E346Q), D1 Walker B variant, purified (S. cerevisiae, UniProt P32794 1-780, E346Q)
# T2 construct: Drg1 (AFG2) of S. cerevisiae with the D1 Walker B exchange E346Q; source: overexpressed in yeast as GST fusion, purified on GSH-agarose, eluted by Prescission protease cleavage
# T2 sequence: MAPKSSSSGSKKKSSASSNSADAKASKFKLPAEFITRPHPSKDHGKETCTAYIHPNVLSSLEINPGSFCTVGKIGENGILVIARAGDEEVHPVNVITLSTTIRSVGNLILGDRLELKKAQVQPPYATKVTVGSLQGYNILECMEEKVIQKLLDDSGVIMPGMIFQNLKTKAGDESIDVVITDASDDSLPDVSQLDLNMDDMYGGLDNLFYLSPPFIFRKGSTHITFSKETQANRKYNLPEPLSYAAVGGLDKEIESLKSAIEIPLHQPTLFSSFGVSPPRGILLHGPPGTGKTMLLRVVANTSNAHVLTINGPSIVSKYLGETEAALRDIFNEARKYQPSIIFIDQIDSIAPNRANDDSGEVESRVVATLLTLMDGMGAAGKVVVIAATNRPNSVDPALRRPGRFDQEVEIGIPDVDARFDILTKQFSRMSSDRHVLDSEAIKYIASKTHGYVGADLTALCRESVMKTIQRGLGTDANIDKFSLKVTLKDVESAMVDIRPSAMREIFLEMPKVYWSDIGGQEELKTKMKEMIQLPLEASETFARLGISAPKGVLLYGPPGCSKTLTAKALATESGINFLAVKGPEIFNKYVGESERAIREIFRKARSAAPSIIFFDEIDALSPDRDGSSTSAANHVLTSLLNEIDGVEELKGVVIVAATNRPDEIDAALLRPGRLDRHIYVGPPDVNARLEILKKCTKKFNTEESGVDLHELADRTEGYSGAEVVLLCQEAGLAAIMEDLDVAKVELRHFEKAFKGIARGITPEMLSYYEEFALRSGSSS
# T3: Nsa2 on the pre-60S particle (S. cerevisiae (endogenous in the yeast …, UniProt P40078 1-261))
# T3 construct: Nsa2 of S. cerevisiae; only His20 to Lys74 seen as density; source: endogenous, on pre-60S particles purified via Bud20-TAP from S. cerevisiae
# T3 sequence (looked up): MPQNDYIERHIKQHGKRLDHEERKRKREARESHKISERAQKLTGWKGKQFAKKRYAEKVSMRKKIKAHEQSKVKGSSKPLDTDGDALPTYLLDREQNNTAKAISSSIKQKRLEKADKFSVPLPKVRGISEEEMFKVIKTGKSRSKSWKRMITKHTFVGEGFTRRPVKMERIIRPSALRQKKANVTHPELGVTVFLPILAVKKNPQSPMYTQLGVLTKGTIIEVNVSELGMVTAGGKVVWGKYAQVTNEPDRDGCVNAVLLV
# Experiments:
# Settings in all cases: both partners purified
# [1] = target: T1, Drg1 (diazaborine resistance gene 1), …; assay: pull-down; GST-tagged bait on GSH-agarose beads; 80 µg Drg1 in 120 µl binding buffer (20 mM HEPES-KOH, 150 mM potassium acetate, 5 mM magnesium acetate, 0.1% Tween-20, 1 mM DTT, pH 6.8); 1 mM ATP or ATPγS or no nucleotide; 60 minutes, room temperature
# [2] = target: T2, Drg1EQ1 (E346Q), D1 Walker B variant, …; assay: as above
# [3] = target: T3, Nsa2 on the pre-60S particle; assay: cryo-EM structure; purified Drg1 (1.75 mg/ml, 12 µM) mixed 1:1 with 200 nM export-competent Bud20-TAP pre-60S particles, 2 mM ATPγS, 10 minutes; particle-bound Drg1 and free Drg1 hexamers picked from the same dataset
Binder,binding result [1],binding result [2],binding result [3]
"GST-Arx1 (natural protein, S. cerevisiae, Arx1 of S. cerevisiae; not shown: GST, N-terminal, kept) MALAISHEDTQILLKDKNILQESVLNKYRTAGQIAQTALKYVTSLINDSYHSKTTQRQLTVPELCLLTDSFILTRLEQYYKNKVNERGIAIPTTIDIDQISGGWCPEIDDTQNLLNWNKGKDSTFASSVTGTLRPGDLVKITLGVHIDGYTSEVSHTMVIYPVDETKPILQPTGPLLGGKADAVAAAHIAMETVVALLACALTPEKLPASLGGTSSGITGQLIRTIVDTIARSYNCGVVPGSRVRRIRRFLAGQNEGIVAEREYKGVVWTESHQEADLLSNTDAKDLTVVDRGQSTPFTNVSAIPSDDFVVQSGEVYLIDLKMASLEHCTKKGLVTLETVDSYTGKSHKAGELIARPGAYVRDFAQTHILKLKTSRQLLTKIDKQGVYPFKLSHLSSNFPFVHENEEELQSLKKDLKSFRLGMSEISNNYLCVESPIQIARWVPWDHILKATNPNGNLSYDATSTLTLPGHELPLPKLGVSAIKLKSLMNSTKESISLPVARECNTIVLCDSSVSTTDRPELLRLTGGSKTCQPSWIHSQHELNPQDSIVQGIFQLATLAKDKRFGLLLKETQPMKQKSVETSNGGVEETMKM",binds,binds,–
"Mrt4 on the pre-60S particle (natural protein, UniProt P33201 1-236, looked up, Mrt4 of S. cerevisiae; source: endogenous, on pre-60S particles purified via Bud20-TAP from S. cerevisiae) MPRSKRSKLVTLAQTDKKGRENKERIFDEVREALDTYRYVWVLHLDDVRTPVLQEIRTSWAGSKLIMGKRKVLQKALGEKREEEYKENLYQLSKLCSGVTGLLFTDEDVNTVKEYFKSYVRSDYSRPNTKAPLTFTIPEGIVYSRGGQIPAEEDVPMIHSLEPTMRNKFEIPTKIKAGKITIDSPYLVCTEGEKLDVRQALILKQFGIAASEFKVKVSAYYDNDSSTVESTNINME",–,–,binds

# Source: paper PMC9507969, “Visualizing maturation factor extraction from the nascent ribosome by the AAA-ATPase Drg1” (Nature Structural & Molecular Biology, 2022)
